This passage reports recombination upon caffeine induction, tandem against single CaffVHH split Cre 270/271 results from patent US20230279406A1.

This assay addresses CD176 PV1-tandem CaffVHH-L1-iCre-271C-NLS-BGHpA. As to the kind of experiment: cell-based or functional assay.

Chain of CD176 PV1-tandem CaffVHH-L1-iCre-271C-NLS-BGHpA (chain, as listed by the source): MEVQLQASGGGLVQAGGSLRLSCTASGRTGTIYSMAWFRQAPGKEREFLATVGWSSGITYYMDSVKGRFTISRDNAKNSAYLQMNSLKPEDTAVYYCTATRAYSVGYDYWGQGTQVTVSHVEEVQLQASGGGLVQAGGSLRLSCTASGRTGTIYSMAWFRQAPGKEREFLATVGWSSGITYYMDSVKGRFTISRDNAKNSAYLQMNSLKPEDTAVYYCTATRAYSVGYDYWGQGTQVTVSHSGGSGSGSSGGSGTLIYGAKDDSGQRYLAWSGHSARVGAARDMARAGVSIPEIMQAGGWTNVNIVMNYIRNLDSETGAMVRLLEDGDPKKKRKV

B1: CD175 PV1-iCre-N270-L1-tandem CaffVHH-NLS-BGHpA (protein)
chain: MSNLLTVHQNLPALPVDATSDEVRKNLMDMFRDRQAFSEHTWKMLLSVCRSWAAWCKLNNRKWFPAEPEDVRDYLLYLQARGLAVKTIQQHLGQLNMLHRRSGLPRPSDSNAVSLVMRRIRKENVDAGERAKQALAFERTDFDQVRSLMENSDRCQDIRNLAFLGIAYNTLLRIAEIARIRVKDISRTDGGRMLIHIGRTKTLVSTAGVEKALSLGVTKLVERWISVSGVADDPNNYLFCRVRKNGVAAPSATSQLSTRALEGIFEATHRSGGSGSGSSGGSGTMEVQLQASGGGLVQAGGSLRLSCTASGRTGTIYSMAWFRQAPGKEREFLATVGWSSGITYYMDSVKGRFTISRDNAKNSAYLQMNSLKPEDTAVYYCTATRAYSVGYDYWGQGTQVTVSHVEEVQLQASGGGLVQAGGSLRLSCTASGRTGTIYSMAWFRQAPGKEREFLATVGWSSGITYYMDSVKGRFTISRDNAKNSAYLQMNSLKPEDTAVYYCTATRAYSVGYDYWGQGTQVTVSHPKKKRKV
Turning to B1, the recombination upon caffeine induction, tandem against single CaffVHH split Cre 270/271 is less than 13 fold.
